# T1: DFNB31_2, Q9P202
# T1 sequence (Q9P202 274-371, limits assumed, looked up): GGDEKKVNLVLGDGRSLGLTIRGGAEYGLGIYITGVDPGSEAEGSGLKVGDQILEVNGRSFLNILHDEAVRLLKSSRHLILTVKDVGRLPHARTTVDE
# T2: MPP6, Q9NZW5
# T2 sequence (Q9NZW5 125-219, limits assumed, looked up): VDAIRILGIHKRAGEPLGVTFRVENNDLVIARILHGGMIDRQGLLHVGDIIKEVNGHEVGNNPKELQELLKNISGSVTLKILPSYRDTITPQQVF
# T3: GRIP1_2, Q9Y3R0
# T3 sequence (Q9Y3R0 145-248, limits assumed, looked up): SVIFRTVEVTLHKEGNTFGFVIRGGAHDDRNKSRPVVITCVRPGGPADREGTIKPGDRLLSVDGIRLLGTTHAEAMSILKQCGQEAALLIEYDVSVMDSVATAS
# T4: GRIP1_3, Q9Y3R0
# T4 sequence (Q9Y3R0 247-346, limits assumed, looked up): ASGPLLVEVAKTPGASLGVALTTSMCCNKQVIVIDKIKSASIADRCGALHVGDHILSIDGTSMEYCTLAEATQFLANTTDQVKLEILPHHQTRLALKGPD
# T5: ARHGEF11, O15085
# T5 sequence (O15085 42-136, limits assumed, looked up): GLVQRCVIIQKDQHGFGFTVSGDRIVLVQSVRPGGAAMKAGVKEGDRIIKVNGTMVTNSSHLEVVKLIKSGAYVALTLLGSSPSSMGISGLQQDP
# T6: GRIP1_7, Q9Y3R0
# T6 sequence (Q9Y3R0 999-1096, limits assumed, looked up): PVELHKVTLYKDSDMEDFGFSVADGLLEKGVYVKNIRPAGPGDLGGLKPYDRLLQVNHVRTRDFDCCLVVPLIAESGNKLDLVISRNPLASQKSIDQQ
# T7: GRIP1_5, Q9Y3R0
# T7 sequence (Q9Y3R0 568-668, limits assumed, looked up): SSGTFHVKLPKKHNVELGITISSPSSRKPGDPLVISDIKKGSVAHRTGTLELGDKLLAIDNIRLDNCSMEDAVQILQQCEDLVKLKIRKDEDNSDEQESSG
# T8: PCLO, Q9Y6V0
# T8 sequence (Q9Y6V0 4491-4600, limits assumed, looked up): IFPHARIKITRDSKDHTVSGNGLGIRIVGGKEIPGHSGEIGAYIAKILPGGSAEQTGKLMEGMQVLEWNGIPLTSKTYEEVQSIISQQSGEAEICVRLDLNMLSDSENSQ
# T9: PDZD2_2, O15018
# T9 sequence (O15018 329-429, limits assumed, looked up): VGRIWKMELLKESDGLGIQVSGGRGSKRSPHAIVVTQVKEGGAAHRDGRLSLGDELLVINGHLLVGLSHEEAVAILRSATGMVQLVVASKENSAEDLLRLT
# T10: RAPGEF6, Q8TEU7
# T10 sequence (Q8TEU7 525-625, limits assumed, looked up): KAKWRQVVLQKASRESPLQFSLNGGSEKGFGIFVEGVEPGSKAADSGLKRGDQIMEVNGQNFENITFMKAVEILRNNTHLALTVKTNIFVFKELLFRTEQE
# Legend:
# Assay in all cases: holdup assay
# Parameters in all cases: key: below the threshold = too weak to quantify, mostly under pKd 3.1 to 4
# Conditions in all cases: plain residues with an end cap or a label only (N-terminal biotin on a linker: ado-ado)
# SNX27, Q96L92 = molecular target: SNX27, Q96L92
# Inadl_8, Q8NI35 = molecular target: Inadl_8, Q8NI35
# DFNB31_2, Q9P202 = molecular target: T1, DFNB31_2, Q9P202
# MPP6, Q9NZW5 = molecular target: T2, MPP6, Q9NZW5
# MAGI1_2, Q96QZ7 = molecular target: MAGI1_2, Q96QZ7
# GIPC2, Q8TF65 = molecular target: GIPC2, Q8TF65
# Inadl_2, Q8NI35 = molecular target: Inadl_2, Q8NI35
# GORASP1, Q9BQQ3 = molecular target: GORASP1, Q9BQQ3
# PDZRN4_1, Q6ZMN7 = molecular target: PDZRN4_1, Q6ZMN7
# GRIP1_2, Q9Y3R0 = molecular target: T3, GRIP1_2, Q9Y3R0
# GRIP1_3, Q9Y3R0 = molecular target: T4, GRIP1_3, Q9Y3R0
# GRID2IP_2, A4D2P6 = molecular target: GRID2IP_2, A4D2P6
# LIMK2, P53671 = molecular target: LIMK2, P53671
# ARHGEF11, O15085 = molecular target: T5, ARHGEF11, O15085
# GRIP2_6, Q9C0E4 = molecular target: GRIP2_6, Q9C0E4
# MAGI2_5, Q86UL8 = molecular target: MAGI2_5, Q86UL8
# AHNAK1, Q09666 = molecular target: AHNAK1, Q09666
# TJP2_1, Q9UDY2 = molecular target: TJP2_1, Q9UDY2
# GRIP2_7, Q9C0E4 = molecular target: GRIP2_7, Q9C0E4
# GRIP1_7, Q9Y3R0 = molecular target: T6, GRIP1_7, Q9Y3R0
# MAST2, Q6P0Q8 = molecular target: MAST2, Q6P0Q8
# GRIP1_5, Q9Y3R0 = molecular target: T7, GRIP1_5, Q9Y3R0
# PCLO, Q9Y6V0 = molecular target: T8, PCLO, Q9Y6V0
# Inadl_6, Q8NI35 = molecular target: Inadl_6, Q8NI35
# Inadl_10, Q8NI35 = molecular target: Inadl_10, Q8NI35
# PDZD2_2, O15018 = molecular target: T9, PDZD2_2, O15018
# RAPGEF6, Q8TEU7 = molecular target: T10, RAPGEF6, Q8TEU7
# Inadl_3, Q8NI35 = molecular target: Inadl_3, Q8NI35
# Sequence of Inadl_3, Q8NI35 (Q8NI35 359-469): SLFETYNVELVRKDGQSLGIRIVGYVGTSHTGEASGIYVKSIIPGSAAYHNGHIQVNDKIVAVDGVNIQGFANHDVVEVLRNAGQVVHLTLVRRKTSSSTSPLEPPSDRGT
# Sequence of GRID2IP_2, A4D2P6 (A4D2P6 272-370): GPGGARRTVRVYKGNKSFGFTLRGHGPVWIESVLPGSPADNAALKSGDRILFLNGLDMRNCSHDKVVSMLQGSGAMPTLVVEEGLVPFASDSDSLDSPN
# Sequence of GORASP1, Q9BQQ3 (Q9BQQ3 1-208): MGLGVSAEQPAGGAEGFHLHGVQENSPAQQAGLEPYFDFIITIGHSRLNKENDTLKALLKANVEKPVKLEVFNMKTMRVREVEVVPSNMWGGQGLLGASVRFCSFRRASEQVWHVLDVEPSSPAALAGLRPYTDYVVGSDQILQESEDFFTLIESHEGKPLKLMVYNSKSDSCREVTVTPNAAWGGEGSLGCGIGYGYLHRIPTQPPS
# Sequence of LIMK2, P53671 (P53671 143-248): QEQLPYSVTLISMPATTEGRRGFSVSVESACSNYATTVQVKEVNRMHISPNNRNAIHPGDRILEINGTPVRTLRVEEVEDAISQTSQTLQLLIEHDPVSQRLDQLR
# Sequence of GRIP2_7, Q9C0E4 (Q9C0E4 934-1023): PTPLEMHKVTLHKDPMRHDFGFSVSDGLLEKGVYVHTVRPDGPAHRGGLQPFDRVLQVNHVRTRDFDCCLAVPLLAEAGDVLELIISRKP
# Sequence of PDZRN4_1, Q6ZMN7 (Q6ZMN7 213-318): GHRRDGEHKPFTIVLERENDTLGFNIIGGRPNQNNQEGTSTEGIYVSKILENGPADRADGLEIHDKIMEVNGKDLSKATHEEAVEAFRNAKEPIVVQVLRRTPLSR
# Sequence of MAGI2_5, Q86UL8 (Q86UL8 915-1017): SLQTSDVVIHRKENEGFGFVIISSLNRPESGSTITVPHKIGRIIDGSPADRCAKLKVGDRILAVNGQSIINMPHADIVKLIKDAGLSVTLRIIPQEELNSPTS
# Sequence of TJP2_1, Q9UDY2 (Q9UDY2 24-128): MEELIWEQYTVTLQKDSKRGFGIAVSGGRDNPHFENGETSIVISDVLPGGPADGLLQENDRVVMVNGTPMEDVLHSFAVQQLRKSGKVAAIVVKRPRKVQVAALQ
# Sequence of Inadl_10, Q8NI35 (Q8NI35 1673-1763): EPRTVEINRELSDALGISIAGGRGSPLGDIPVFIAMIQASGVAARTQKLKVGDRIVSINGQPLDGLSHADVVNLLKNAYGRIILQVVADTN
# Sequence of Inadl_8, Q8NI35 (Q8NI35 1425-1530): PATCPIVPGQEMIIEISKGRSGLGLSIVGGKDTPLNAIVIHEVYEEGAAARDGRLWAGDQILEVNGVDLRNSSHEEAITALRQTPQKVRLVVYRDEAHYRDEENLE
# Sequence of Inadl_6, Q8NI35 (Q8NI35 1058-1167): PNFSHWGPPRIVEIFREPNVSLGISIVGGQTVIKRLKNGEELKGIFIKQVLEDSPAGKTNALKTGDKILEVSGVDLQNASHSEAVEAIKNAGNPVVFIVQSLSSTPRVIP
# Sequence of MAST2, Q6P0Q8 (Q6P0Q8 1099-1202): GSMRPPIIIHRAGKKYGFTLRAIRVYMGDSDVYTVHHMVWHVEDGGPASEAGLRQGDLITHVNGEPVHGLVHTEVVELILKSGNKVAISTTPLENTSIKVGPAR
# Sequence of GRIP2_6, Q9C0E4 (Q9C0E4 648-740): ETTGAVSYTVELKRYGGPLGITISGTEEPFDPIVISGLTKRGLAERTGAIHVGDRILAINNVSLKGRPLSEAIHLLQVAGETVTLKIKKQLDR
# Sequence of AHNAK1, Q09666 (Q09666 4-100): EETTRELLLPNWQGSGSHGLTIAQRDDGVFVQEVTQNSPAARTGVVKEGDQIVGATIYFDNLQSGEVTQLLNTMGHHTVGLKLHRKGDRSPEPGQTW
# Sequence of GIPC2, Q8TF65 (Q8TF65 112-203): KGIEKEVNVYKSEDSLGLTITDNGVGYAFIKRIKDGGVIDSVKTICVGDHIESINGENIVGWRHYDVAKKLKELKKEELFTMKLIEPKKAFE
# Sequence of MAGI1_2, Q96QZ7 (Q96QZ7 456-580): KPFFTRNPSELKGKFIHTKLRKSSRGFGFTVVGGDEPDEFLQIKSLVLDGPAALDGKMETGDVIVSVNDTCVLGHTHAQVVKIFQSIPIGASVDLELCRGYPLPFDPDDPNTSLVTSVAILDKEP
# Sequence of Inadl_2, Q8NI35 (Q8NI35 238-335): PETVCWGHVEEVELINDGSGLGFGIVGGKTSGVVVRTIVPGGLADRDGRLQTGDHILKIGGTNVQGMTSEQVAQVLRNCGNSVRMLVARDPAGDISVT
Binder,"pKd (SNX27, Q96L92)","pKd (Inadl_8, Q8NI35)","pKd (DFNB31_2, Q9P202)","pKd (MPP6, Q9NZW5)","pKd (MAGI1_2, Q96QZ7)","pKd (GIPC2, Q8TF65)","pKd (Inadl_2, Q8NI35)","pKd (GORASP1, Q9BQQ3)","pKd (PDZRN4_1, Q6ZMN7)","pKd (GRIP1_2, Q9Y3R0)","pKd (GRIP1_3, Q9Y3R0)","pKd (GRID2IP_2, A4D2P6)","pKd (LIMK2, P53671)","pKd (ARHGEF11, O15085)","pKd (GRIP2_6, Q9C0E4)","pKd (MAGI2_5, Q86UL8)","pKd (AHNAK1, Q09666)","pKd (TJP2_1, Q9UDY2)","pKd (GRIP2_7, Q9C0E4)","pKd (GRIP1_7, Q9Y3R0)",further results
"ALPLPQSSTC [IGF1R, P08069]",below the threshold,3.66,below the threshold,below the threshold,below the threshold,below the threshold,below the threshold,below the threshold,below the threshold,below the threshold,below the threshold,3.99,below the threshold,4.13,below the threshold,below the threshold,below the threshold,below the threshold,below the threshold,below the threshold,"pKd (MAST2, Q6P0Q8): 4.31; pKd (GRIP1_5, Q9Y3R0): below the threshold; pKd (PCLO, Q9Y6V0): below the threshold; pKd (Inadl_6, Q8NI35): below the threshold; pKd (Inadl_10, Q8NI35): below the threshold; pKd (PDZD2_2, O15018): 4.46; pKd (RAPGEF6, Q8TEU7): below the threshold; pKd (Inadl_3, Q8NI35): below the threshold"
"IPGKEFDTPL [PLCB1, Q9NQ66]",5.17,below the threshold,below the threshold,3.59,below the threshold,below the threshold,below the threshold,below the threshold,4.3,below the threshold,below the threshold,below the threshold,below the threshold,below the threshold,below the threshold,below the threshold,below the threshold,below the threshold,below the threshold,below the threshold,"pKd (MAST2, Q6P0Q8): 4.95; pKd (GRIP1_5, Q9Y3R0): below the threshold; pKd (PCLO, Q9Y6V0): below the threshold; pKd (Inadl_6, Q8NI35): below the threshold; pKd (Inadl_10, Q8NI35): below the threshold; pKd (PDZD2_2, O15018): 3.62; pKd (RAPGEF6, Q8TEU7): below the threshold; pKd (Inadl_3, Q8NI35): below the threshold"
"REKKFFCTIL [GNG4, P50150]",5.13,4.52,below the threshold,below the threshold,4.92,below the threshold,below the threshold,5.07,4.19,4.1,below the threshold,5.07,below the threshold,5.34,4.57,4.86,below the threshold,4.93,below the threshold,below the threshold,"pKd (MAST2, Q6P0Q8): 5.62; pKd (GRIP1_5, Q9Y3R0): below the threshold; pKd (PCLO, Q9Y6V0): below the threshold; pKd (Inadl_6, Q8NI35): 4.22; pKd (Inadl_10, Q8NI35): 4.26; pKd (PDZD2_2, O15018): 4.06; pKd (RAPGEF6, Q8TEU7): below the threshold; pKd (Inadl_3, Q8NI35): 4.67"

# More lines, main results first:
"pKd (SNX27, Q96L92)","pKd (Inadl_8, Q8NI35)","pKd (DFNB31_2, Q9P202)","pKd (MPP6, Q9NZW5)","pKd (MAGI1_2, Q96QZ7)","pKd (GIPC2, Q8TF65)","pKd (Inadl_2, Q8NI35)","pKd (GORASP1, Q9BQQ3)","pKd (PDZRN4_1, Q6ZMN7)","pKd (GRIP1_2, Q9Y3R0)","pKd (GRIP1_3, Q9Y3R0)","pKd (GRID2IP_2, A4D2P6)","pKd (LIMK2, P53671)","pKd (ARHGEF11, O15085)","pKd (GRIP2_6, Q9C0E4)","pKd (MAGI2_5, Q86UL8)","pKd (AHNAK1, Q09666)","pKd (TJP2_1, Q9UDY2)","pKd (GRIP2_7, Q9C0E4)","pKd (GRIP1_7, Q9Y3R0)",Binder,further results
5.48,3.81,below the threshold,3.69,3.53,below the threshold,below the threshold,below the threshold,below the threshold,below the threshold,below the threshold,3.8,below the threshold,4.13,below the threshold,3.48,below the threshold,below the threshold,below the threshold,below the threshold,"NLQEHSTTSV [RSBN1, Q5VWQ0]","pKd (MAST2, Q6P0Q8): 5.61; pKd (GRIP1_5, Q9Y3R0): below the threshold; pKd (PCLO, Q9Y6V0): below the threshold; pKd (Inadl_6, Q8NI35): below the threshold; pKd (Inadl_10, Q8NI35): below the threshold; pKd (PDZD2_2, O15018): 4.52; pKd (RAPGEF6, Q8TEU7): below the threshold; pKd (Inadl_3, Q8NI35): below the threshold"
below the threshold,below the threshold,below the threshold,3.69,below the threshold,below the threshold,below the threshold,below the threshold,below the threshold,below the threshold,below the threshold,below the threshold,below the threshold,below the threshold,below the threshold,below the threshold,below the threshold,below the threshold,below the threshold,below the threshold,"DHLGGGGESM [TNRC6A, Q8NDV7]","pKd (MAST2, Q6P0Q8): 3.62; pKd (GRIP1_5, Q9Y3R0): below the threshold; pKd (PCLO, Q9Y6V0): below the threshold; pKd (Inadl_6, Q8NI35): below the threshold; pKd (Inadl_10, Q8NI35): below the threshold; pKd (PDZD2_2, O15018): below the threshold; pKd (RAPGEF6, Q8TEU7): below the threshold; pKd (Inadl_3, Q8NI35): below the threshold"

# From article PMC9482650, “Quantitative fragmentomics allow affinity mapping of interactomes” (Nature Communications, 2022)
